Assay: yeast display, Sf9 membrane polyspecificity reagent, FACS + sequencing; frameworks hold sequencing errors
Summary of the method: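 Genes from sorted yeast were amplified by colony PCR, read by MiSeq 2 × 250 sequencing and filtered on CDR length. These cells carried a synthetic nanobody library in Saccharomyces cerevisiae BJ5465 and were sorted by FACS into low and high (top ~1%) gates on anti-HA and streptavidin fluorescence. Polyreactivity is labelled according to the gate of origin.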

Sequence	polyreactivity (PSR sort gate)
QVQLVESGRGLVQAGGSLRLSCAASGRTFRGNAMGWYREAPGKERELVAAIRYRGGSTYYADSVKGRFTISRDNAKNTVYLQMNSLKPEDTAVYYCARRYTVHTQHYDYWGQGTQVNVSS	high polyreactivity
QVQLVESGRGLVQAGGSLRLSCAASGRTFWIYAMGWYRQAPGKERELVAAISRGGSTYADSVKGRFTISRDNAKNTVYLQMNSLKPEDTAVYYCAASTPQYQYYYWGQGTQVTVSS	high polyreactivity
QVQLVESGRGLVQAGGSLRLSCAASGRTFWTYTMGCYRQAPWKEREFVAAITFGDGSTSYADYVKGRFTISRDNAKNTVFLQMNSLKQEDTAVYYCAKRWRRRFVDVWSLYDYWGHGTQVTVSS	low polyreactivity
QVQLVESGRGLVQAGGSLRLSCAASGRTFYSNTMGWSRQAPGKERELVAVISNGGSTYYADSVKGRFTISRDNAKYTVYLQMNSLKPEETAVYYCAARSRDRYRGNYWGQGTQVTVSS	high polyreactivity
QVQLVESGRGLVQAGGSLRLSCAASGRTFYYYAMGWYRQAPGKERELVAAISRSGTRTYYADSVKGRFTISRDNAKNTVYLQMNSLKPEDTAVYYCAAVGAAGQDNYWGQGTQVTVSS	high polyreactivity
QVQLVESGRGLVQAGGSLRLSCAASGSIFGRNAMGWYRQAPGKERELVAAITWRGGRTYYADSVKGRFTISRDNAKNTVYLQMNSLKPEDTAVYYCAAVVAYQYTGYRFDYWGQGTQVTVSS	high polyreactivity
QVQLVESGRGLVQAGGSLRLSCAASGSIFYYLAKGWYRQAPGKERELVAVIDFSGASTSYADSVKGRFTISRDNAKNTVYLQMNSLKPEDTAVYYCAADRFRRKVRVDYWGQGTQVTVSS	low polyreactivity
QVQLVESGRGLVQAGGSLRLSCAASGSILVFYAMGWYRQAPGKERELVATITGSVGRTSYADSVKGRFTISRDNAKNTVYLQMNSLKPEDSAVYYCAADADTDVFYILQEYDYWGQGTQVTVSS	low polyreactivity
QVQLVESGRGLVQAGGSLRLSCAASGSTFKDYPMGWYRQAPGKESELVARISTRVGSTYYPDSVKGRFTISRDNAKNTVYLQMNRLNPEDTAVFYCNARWWYPPYYYWGQGTQVSVSS	high polyreactivity
QVQLVESGRGLVQAGGSLRLSCAASGSTFLDYAMGWYRQAPGKERELVAAINGSGSRTYYADSVKGRFTISRDNAKNTVYLQMNRLKPEDTAVYYCAHEYGYWGQGTQVTVSS	low polyreactivity
QVQLVESGRGLVQAGGSLRLSCAPSGSTIQDYAMGWYRQAPGKERELVAAISWRSDITYYAESVKGRFTISRDNAKNTVYLQMNSLKPEDTAVYYCAADNSYHWLDREFDYEFDYWGQGTQVTVSS	high polyreactivity
QVQLVESGRGLVQAGGSLRLSCASSGFTLSPNAMRWYRPAPGKEREFVAAISQRGGSTYYADSVKGRFTISRDNAKNTVYLQMNSLKPEDTAVYYCARDTKYKYDFWGQGTQVTVSS	low polyreactivity
QVQLVESGRGLVQAGGSLRLSSAASGRIFPTNAMGWYRQAPGKERELVASIDSGDITHYADSVKGRFTISRDNAMNTVYLQMISLKPEDTAVYYCAKRPQAQYTYITGDDYWGQGTQVTVSS	low polyreactivity
QVQLVESGRGLVQAGGSLRLTCAASGRIFYLNAMGGYRQAPGKERELVAGITNSTTGTYYADSVKGRFTIARDNAKNTVYLQMNSLKPVDTAVYYCNTDVAYEEPVETYDYWGQGTQVTVSS	low polyreactivity
QVQLVESGRGLVQAGGSLRLTCAASGSTFTANDMGGSRPATGTERELFADISSGDGTNYADSVKGRFTISRDNAKNTVYLQMISLKPEDTAVYYCAKDVYNFRTTHSYFTGYDSWGHGTQVTVSS	low polyreactivity
QVQLVESGRGLVQAGGSLSLSCAASGRIFYYYVMGWYRQAPGKERELVAVIDWSGGSTYYADSVKGRFTISRVNAKNTVYLQMNSLKPEDTAVYYCAKVGLNFSLAYEDYDYWGQGTQVTVSS	low polyreactivity
QVQLVESGRGLVQAGGSRRLSCAASGSIITWNAMARYRQAPGKERELFAAIDWDGGSTYYADSVKGRFTISRDNAKNTVYFQMNSLKPEDTAVYYCAATYGWYTGRYPSGHYYYWGQGTQVTVSS	low polyreactivity
QVQLVESGRGLVQAGGTLRLSCAASGRIFYWNAMGWYRQAHGKERELVAAISWSGGSTYYADSVKGRFTISRDNAKNTVYLQMNSLKPEDTAVYYCAADGGRRTYYVKYDYWGQGTQVTVSS	low polyreactivity
QVQLVESGRGLVQAGGTLRLSCAASGSIFGYYAMGWYRQAPGKERELVASISGSGGTTYYADSVKGRFTISRDNAKNTVYLQMNSLNPEDTAVYYCAARRSIYGYPFVTSRRGYWGQGTQVTVSS	high polyreactivity
QVQLVESGRGLVQAGVSLRLSCASSGSTFTLNVMGWYRKAPVKERELVAGFSKRGGNTYYADSVKGRFTISRDYAKNTVYLQMNRLKPEDTAVYFCAKRQGVGYGYYYLGQGTQVTVSS	high polyreactivity
QVQLVESGRGLVRAGGSLRLSCAASGRTFGVYAMGWYRQAPGKERELVASIRYSGVSTYYADSVKGRFTISRDNAKNTVYLQMNSLKPEDTAVYYCAARYRSRRVDYGYDYWGQGTQVTVSS	high polyreactivity
QVQLVESGTGLVQAGGSLRLSCADSGITFVFYSMGSYRQAPGKESELVATISYRGTSTYYADSVKGLFTISRDNAKNSVSLQMNSLKPEDTAVYYCAADTFIYYKTGYGYWGQGTQVTVSS	low polyreactivity

Sequence	polyreactivity (PSR sort gate)
QVQLVESGVCLVQAGGSLRLSCAASGFTYYFYTMGWYRQAPGKERELVARITARGGSTYYADSVKGRFTISRDNAKNTVYLQMNSLKPEDTAVYYCAAVTYFGWYPYRMEYWGQGTQVTVSS	high polyreactivity
QVQLVESGVGIVQAGGSLRLSCAASGFTFDNYVMGWYRQAPGKERELVAAISTGSRTYYADSVKGRFTISRDNAKNTVYLQMNSLKPEDTAVYYCAASYVRRSWYSNDYWGQGTQVTVSS	high polyreactivity
QVQLVESGVGLDQAGGSLRLSCAASGSIFRRYAMGWYRQAHGKERELVAAISSNGGSTYYADSVKGRFTISRDNAKNTVYLQMNSLKPEDTAVYYCTAPPLYRDEYWGQGTQVTVAS	high polyreactivity
QVQLVESGVGLDQAGGSLRLSCAASGSIIWYYAMGWYRQAPGKERELVAAITVSGGSTYYADSVKGRFTISRDNAKNTVYLEMNTLKPEDTAVYYCAALYISLSGDEYDYWGQGTQVTVSS	low polyreactivity
QVQLVESGVGLLQAGGSLSLSCSASGSTLYYAMGWYRQAPGKERELVASITFSTGSTYYADSVKGRFTISRDNAKNTVYLQMNSLKPEDTAVYYCATGVDTYYLTVEHDSWGQGTQVTVSS	low polyreactivity
QVQLVESGVGLVKAGGSLRLSCAASGITFGFYAMGWYRQAPGKDRELVASISSRGGSTNYADSVKGRFTISRDNAKNTVYLQMNSLKPEDTAVYYCAVAWLVRGGGGRRTFYSWGQGTQVTVSS	high polyreactivity
QVQLVESGVGLVQAAGSLRLSCAASGRIFKYYAMGWYRQAPGKERELVATISRGSRTNYADSVKGRFTISRDNAKNTVYLQMNSLKPEDTAVYYCAAQRLSASRPYGYWGQGTQVTVSS	high polyreactivity
QVQLVESGVGLVQAGGSHRLSSGASGSIFSSYAMGWYRQEPVKERELVADISQSGGDTYYADSVQGRFTISRDNANNTVYLQRNSLKPEDNAVYYCAASVWYYPMDYWGKGTQVTVSS	low polyreactivity
QVQLVESGVGLVQAGGSLLLSCAASGRIFRVYAMGWYRQAPGKERELVAAISWSGGRTYYADSVKGRFTISRDNAKNTVYLQMNSLKPEDTAVYYCAAERCGPTYYSGGDYDYWGQGTQVTVSS	high polyreactivity
QVQLVESGVGLVQAGGSLRISCAASGRIYRSNAMGWYRQAPGKERELLAAISSNGGSTYYADSVKGRFTISRDNAKNTVYLQMNSLKPEDTAVYYCAARVYYPVRYGYWGQGTQVSVSS	high polyreactivity
QVQLVESGVGLVQAGGSLRLICAASGRTFAYYAMGWYRQAPGKERELVAAISSGGRTNYADSVKGRFTISRDNAKNTVYLQMNSLKPEDTAVYYCARKASYQIYNGQYGGFGYGYWGQGTQVTVSS	high polyreactivity
QVQLVESGVGLVQAGGSLRLICDASGRIYSYYAIGWYRQAPGKETELVASISRSGGSTYYADSVKGRFTISRDNAKNTVYLQMNSLKPEETAVYYCAAYKYVRSYPYDYWGQGTQVTVSS	low polyreactivity
QVQLVESGVGLVQAGGSLRLRCAASGSIFRRYAMGWYRQAPGKERELVARITSSSGTTTYADSVKGRFTISRYNSKNNVYLQMNSLKPEDTAVYYCAAAWWHAYYGKNYYWGQGTQVTVSS	high polyreactivity
QVQLVESGVGLVQAGGSLRLSCAASGFIFPYYTMGWYRQAPGKERELVAAISASSGRTYYADSVKGRFTISSDNAKNTVYLQMNSLKPEDTAVYYCAAKTYEPRKYEYWGQGTQVTVSS	high polyreactivity
QVQLVESGVGLVQAGGSLRLSCAASGFLIRYYAMGWYRQAPGKERELVASIDWSGGNTYYADSVKGRFTSSRDKAKITVYFQMNSLKPEDTAVYSCNRRGMDWGQGTQVNVSS	low polyreactivity
QVQLVESGVGLVQAGGSLRLSCAASGFTFARYAMGRYRQAPGKEREFVAAISLSTTSTYYADSVKGRFTISRDYANNNVFLQMNSLKPEDTAVYYCATDIVGPHFDYWGQGTQVSVSS	low polyreactivity
QVQLVESGVGLVQAGGSLRLSCAASGFTFYPYAMGWYRQAPGKERELVASITNGGSTNYADSVKGRFTISRDNAKNTVYLQMNSLKPEDTAVYYCTAAYGFYASRYWYASYDYWGQGTQVTVSS	low polyreactivity
QVQLVESGVGLVQAGGSLRLSCAASGIITFYNAMGWYRQAPGKERELVAAITWSGGSTYYADSVKGRFTISRDNAKNTVYVQLNSLKPEDTAVYYCAADVVSVVYLPFVNGGDYWGLGTQVTVSS	low polyreactivity
QVQLVESGVGLVQAGGSLRLSCAASGITFGRNTMGWYRQAPGKERELVAAIDSGGNTYADSVKGRFTISRDNAKNTVYLQMNSLRSEDTAVYYCNARETHQSRYGYWGQGTQVTVSS	low polyreactivity
QVQLVESGVGLVQAGGSLRLSCAASGITFIPYAMGWYRQAPGKERELVASISDGGGTNYADSVKGLFTISRDNAKNTVYLQKNSLNPEDTAVYYCATYASTYSYYGGDYWGQGTPVTVSS	low polyreactivity
QVQLVESGVGLVQAGGSLRLSCAASGITFSSYAMGWYRQAPGKERELVAAITRSGSTTYADSVKGRFTISRDNAKNTVYLQMNSLKPEDTAVYYCAVDYYYLTGGVDYWGQGTQVTVSS	low polyreactivity
